In this assay the target is TgPLP1 MACPF domain (residues 462 to 809, N720Q/N744Q), trypsinized in situ (TMH2 cut away) (Toxoplasma gondii) (UniProt V5BCL0). The experiment in a line: crystal structure; second crystal form of the trypsinized MACPF domain, about 5 Å (5.0 in text, 5.11 in Table 1); 0.1 M Hepes pH 7.5, 10% alcohol mixture, 15% PEG-1000, 15% PEG-3350, 15% MPD; ring assembly, rigid-body refinement only.

In the case of “TgPLP1 MACPF domain (residues 462 to 809, N720Q/N744Q), trypsinized in situ (TMH2 cut away) (from UniProt V5BCL0 462-809) (domain or fragment)”, the stoichiometry N is 6.

These data come from paper PMC5943054.
